The test has as its target T1, SCRIB PDZ3 K1040A (human, UniProt Q14160 1002-1094, K1040A).
T1 sequence: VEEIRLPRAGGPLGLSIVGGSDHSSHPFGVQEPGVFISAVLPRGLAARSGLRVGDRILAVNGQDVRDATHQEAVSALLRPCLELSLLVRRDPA
Kind of test: ITC. The settings on record: both partners purified.

B1: TBEV NS5_CTN peptide (C-terminal PBM of NS5) (peptide)
peptide: LRLESSII
On to B1, for which the Kd came to 12.5 µM, the dH is -6.7 kcal/mol and the “stoichiometry N” value turned out to be 0.9.

In general, Kd refers to the constant that tells how readily two partners part at equilibrium. Lower therefore signals tighter binding. As a reminder, the stoichiometry N is a count of units in the complex or per binding partner.
